From US5821104

Molecular target: Phe-Pro-Ala-pNA

Aspergillus niger tripeptidyl aminopeptidase (TPAP) (enzyme)
specific activity (release of pNA in the TPAP assay): 27 µmol/min/mg
